According to patent US20210403547A1 (Eli Lilly, published 2021):

Columns and labels:
Mouse Epigen = Mouse Epigen (mouse (Mus musculus), UniProt Q924X1 53-103); assay: SPR, 25 C
Mouse Epiregulin [1] = biological target: T1, Mouse Epiregulin (mouse (Mus musculus), UniProt Q61521 56-101); assay: SPR (Biacore), antibody captured on chip, ligand injected, 1:1 Langmuir fit, 25 C
Experimental: (§1) Biacore T2000 instrument (BIAcore® AB, Upsala, Sweden), reagents and Biacore T2000 Evaluation Software Ver 4.1 are used for the Surface Plasmon Resonance analysis. A CMS chip is prepared using manufacturer's EDC/NHS amine coupling method. The surfaces of all four flow cells are activated by injecting a 1:1 mixture of EDC/NHS for 7 minutes at 10 μL/min. […] Un-reacted sites are blocked with a 7 minute injection of ethanolamine at 10 μL/min. Injections of 3×20 seconds of glycine pH 1.5 at 30 μL/min are used to remove non-covalently associated protein. The running buffer is HBS-EP [10 mM HEPES, 150 mM Sodium Chloride, 3 mM EDTA, 0.005% Polysorbate 20].
(§2) Duplicate injections of each ligand concentration are injected at 30 μL/min for 300 seconds followed by a dissociation phase. […] Regeneration is performed by injecting 10 mM glycine pH 1.5 for 30 seconds at 30 μL/min over all flowcell.
(§3) Reference-subtracted data are collected as Fc2-Fc1. The measurements are obtained at 25° C. The on-rate (kₒₙ) and off-rate (koff) for each ligand are evaluated using a “1:1 (Langmuir) Binding” binding model. The affinity (KD) is calculated from the binding kinetics according to the relationship: KD=koff/kₒₙ.

Mouse TGF-alpha [2] = biological target: T2, Mouse TGF-alpha (mouse (Mus musculus), UniProt P48030 39-88); assay: as above
T2 construct: also called mouse TGFα
Experimental: as §1, §2, §3

Mouse Epiregulin [3] = biological target: T1, Mouse Epiregulin; assay: SPR (Biacore), antibody captured on chip, ligand injected, KD = koff/kon, 25 C
Experimental: as §1, §2, §3

Mouse TGF-alpha [4] = biological target: T2, Mouse TGF-alpha; assay: as above
Experimental: as §1, §2, §3

Rat TGF-alpha [5] = biological target: T3, Rat TGF-alpha (rat, UniProt P01134 39-88); assay: cell-based or functional assay
Mouse Epiregulin [6] = biological target: T1, Mouse Epiregulin; assay: cell-based or functional assay
Met-human Epiregulin [7] = biological target: T4, Met-human Epiregulin (human, UniProt O14944 63-108); assay: cell-based or functional assay
Human TGF-alpha = Human TGF-alpha (human, UniProt P01135 40-89); assay: cell-based or functional assay
cynomolgus monkey epigen = cynomolgus monkey epigen (cynomolgus monkey, UniProt G7P5K4 23-110); assay: cell-based or functional assay
Rat TGF-alpha [8] = biological target: T3, Rat TGF-alpha; assay: cell-based or functional assay; remark: listed apart in the source
Mouse Epiregulin [9] = biological target: T1, Mouse Epiregulin; assay: cell-based or functional assay; remark: listed apart in the source
rat epiregulin = rat epiregulin (rat, UniProt Q9Z0L5 56-101, limits assumed); assay: cell-based or functional assay
Met-human Epiregulin [10] = biological target: T4, Met-human Epiregulin; assay: cell-based or functional assay; remark: listed apart in the source
Cynomolgus Epiregulin [11] = biological target: T5, Cynomolgus Epiregulin (cynomolgus (Macaca fascicularis), UniProt O14944 63-108 (human entry)); assay: cell-based or functional assay
Mouse TGF-alpha [12] = biological target: T2, Mouse TGF-alpha; assay: cell-based or functional assay
rat epigen = rat epigen (rat); assay: cell-based or functional assay
Human EGF = Human EGF (human, UniProt P01133 971-1023); assay: cell-based or functional assay
Human Amphiregulin = biological target: T6, Human Amphiregulin (human, UniProt P15514 101-187); assay: cell-based or functional assay
T6 sequence: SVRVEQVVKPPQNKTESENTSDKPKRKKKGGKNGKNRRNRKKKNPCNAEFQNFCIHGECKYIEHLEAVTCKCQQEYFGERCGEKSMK

Human HBEGF = Human HBEGF (human, UniProt Q99075 63-148); assay: cell-based or functional assay
Human Betacellulin = biological target: T7, Human Betacellulin (human, UniProt P35070 32-111); assay: cell-based or functional assay
T7 sequence: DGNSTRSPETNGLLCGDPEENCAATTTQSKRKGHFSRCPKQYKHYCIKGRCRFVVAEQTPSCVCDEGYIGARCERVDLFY

Rat TGF-alpha [13] = biological target: T3, Rat TGF-alpha; assay: SPR (Biacore), antibody captured via anti-Fc on chip, ligand injected, KD = koff/kon, 25 C
Experimental: as §1
(§4) Duplicate injections of each ligand concentration are injected at 30 μL/min for 300 seconds followed by a dissociation phase. […] Regeneration is performed by injecting 10 mM glycine pH 1.5 for 3×20 seconds at 30 μL/min over all flowcell.
as §3

Mouse Epiregulin [14] = biological target: T1, Mouse Epiregulin; assay: as above
Experimental: as §1, §4, §3

Met-human Epiregulin [15] = biological target: T4, Met-human Epiregulin; assay: as above
Experimental: as §1, §4, §3

Cynomolgus Epiregulin [16] = biological target: T5, Cynomolgus Epiregulin; assay: as above
Experimental: as §1, §4, §3

B1: Antibody III (antibody, mouse IgG1, kappa, V domains shown)
VH: QVQLQQSGPELVKPGASVKISCKASGYTFTDAYINWVKQRPGQGLEWIGWIWPGPVITYYNPKFKGKATLTVDKSSSTAYMLLSSLTSEDSAFYFCARREVLSPFAYWGQGTLVTVSA
VL: DVLMTQTPLSLPVSLGDQASISCRSSQSIVHSTGNTYLEWYLQKPGQSPKLLIYKVSNRFSGVPDRFSGSGSGTDFTLKISRVEAEDLGVYYCFHGTHVPYTFGGGTKLEIKR
notes: Mouse monoclonal antibody with the same CDRs as Antibody I; also called mouse antibody
- Kd (Mouse Epigen): 365 nM
- koff (Mouse Epiregulin [1]): 0.0141 s⁻¹
- kon (Mouse Epiregulin [1]): 65500 M⁻¹ s⁻¹
- koff (Mouse TGF-alpha [2]): 2.02e-05 s⁻¹
- kon (Mouse TGF-alpha [2]): 541000 M⁻¹ s⁻¹
- Kd (Mouse Epiregulin [3]): 215 nM
- Kd (Mouse TGF-alpha [4]): 0.038 nM
- IC50, neutralization of ligand-stimulated MFc7 cell proliferation (BrDU incorporation), ligand at 0.5 nM (Rat TGF-alpha [5]): 0.13 nM
- IC50, neutralization of ligand-stimulated MFc7 cell proliferation (BrDU incorporation), ligand at 0.5 nM (Mouse Epiregulin [6]): 214 nM
- IC50, neutralization of ligand-stimulated MFc7 cell proliferation (BrDU incorporation) (Met-human Epiregulin [7]): 1.12 nM
- IC50, neutralization of ligand-stimulated MFc7 cell proliferation (BrDU incorporation) (Human TGF-alpha): 0.52 nM

B2: Antibody I (antibody, human IgG4 S228P, kappa, F234A L235A, V domains shown)
VH: QVQLVQSGAEVKKPGSSVKVSCKASGYTFTDAYINWVRQAPGQGLEWMGWIWPGPVITYYNPKFKGRVTITADKSTSTAYMELSSLRSEDTAVYYCARREVLSPFAYWGQGTTVTVSS
VL: DIVMTQSPDSLAVSLGERATINCRSSQSIVHSTGNTYLEWYQQKPGQPPKLLIYKVSNRFSGVPDRFSGSGSGTDFTLTISSLQAEDVAVYYCFHGTHVPYTFGGGTKVEIKR
notes: Humanized IgG4 monoclonal antibody
- IC50, neutralization of ligand-stimulated myofibroblast proliferation (cynomolgus monkey epigen): < 850 nM
- IC50, neutralization of ligand-stimulated myofibroblast proliferation (Rat TGF-alpha [8]): < 0.5 nM
- IC50, neutralization of ligand-stimulated myofibroblast proliferation (Mouse Epiregulin [9]): < 350 nM
- IC50, neutralization of ligand-stimulated myofibroblast proliferation (rat epiregulin): < 350 nM
- IC50, neutralization of ligand-stimulated myofibroblast proliferation (Met-human Epiregulin [10]): < 3.5 nM
- IC50, neutralization of ligand-stimulated myofibroblast proliferation (Cynomolgus Epiregulin [11]): < 3.5 nM
- IC50, neutralization of ligand-stimulated myofibroblast proliferation (Mouse TGF-alpha [12]): < 0.5 nM
- IC50, neutralization of ligand-stimulated myofibroblast proliferation (rat epigen): < 850 nM
- IC50, neutralization of ligand-stimulated MFc7 cell proliferation (BrDU incorporation), ligand at 0.5 nM (Rat TGF-alpha [5]): 0.19 nM
- IC50, neutralization of ligand-stimulated MFc7 cell proliferation (BrDU incorporation), ligand at 0.5 nM (Mouse Epiregulin [6]): 334 nM
- IC50, neutralization of ligand-stimulated MFc7 cell proliferation (BrDU incorporation), ligand at 0.5 nM (Human EGF): > 2000 nM
- IC50, neutralization of ligand-stimulated MFc7 cell proliferation (BrDU incorporation), ligand at 0.5 nM (Met-human Epiregulin [7]): 3.15 nM
- IC50, neutralization of ligand-stimulated MFc7 cell proliferation (BrDU incorporation), ligand at 60 nM (Human Amphiregulin): > 2000 nM
- IC50, neutralization of ligand-stimulated MFc7 cell proliferation (BrDU incorporation), ligand at 0.5 nM (Human HBEGF): > 2000 nM
- IC50, neutralization of ligand-stimulated MFc7 cell proliferation (BrDU incorporation), ligand at 0.5 nM (Human Betacellulin): > 2000 nM
- Kd (Rat TGF-alpha [13]): 0.0705 nM
- Kd (Mouse Epiregulin [14]): 342 nM
- Kd (Met-human Epiregulin [15]): 1.29 nM
- Kd (Cynomolgus Epiregulin [16]): 1.05 nM
